The values that follow come from publication PMC9409194, “Salt Dependence of DNA Binding Activity of Human Transcription Factor Dlx3”.

The data set deals with Dlx3-HD (human, UniProt O60479 129-188). Briefly: NMR (1H/15N-HSQC CSP and imino proton titration); 100 mM NaCl, 35 C; slow exchange; 10 mM sodium phosphate pH 6.0, 100, 250 or 500 mM NaCl, 90% H2O/10% D2O, 35 C. Particulars: protein: recombinant; tags: Ni-NTA purified (His-tag implied); blunt.
Chain of Dlx3-HD (O60479 129-188): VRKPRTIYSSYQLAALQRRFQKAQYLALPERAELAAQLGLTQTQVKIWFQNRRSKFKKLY

B1: dlxDNA (dsDNA)
DNA 1: CGTAATTGCC
DNA 2: GGCAATTACG
Turning to B1, the binding result is recorded as “binds”.
